Measured values reported in US20040248202A1 (WISCONSIN ALUMNI RESEARCH FOUNDATION, published 2004).

What was measured:
Experiment in all cases: cell-based or functional assay
[1] = target: holotransducin
[2] = target: holotransducin; remark: listed apart in the source
[3] = target: holotransducin; remark: listed apart in the source

B1: BR-Rhodopsin loop 3 chimera, Rhodopsin Insert Y223 to T251 (3B) (other)
chain: QAQITGRPEWIWLALGTALMGLGTLYFLVKGMGVSDPDAKKFYAITTLVPAIAFTMYLSMLLGYGLTMVPFGGEQNPIYWARYADWLFTTPLLLLDLALLVDADQGTILALVGADGIMIGTGLVGALTKVYSYRFVWWAISTAAMLYILYVLFFGFTYGQLVFTVKEAAAQQQESATTQKAEKEVTVASTFKVLRNVTVVLWSAYPVVWLIGSEGAGIVPLNIETLLFMVLDVSAKVGFGLILLRSRAIFGEAEAPEPSAGDGAAATSD
Activation (x100%) Over Basal Exchange [1]: 1.17 x100%
Specific counts (Lattice Form), 10 Minutes, GTPyS uptake [1]: 62800 specific counts

B2: BR-Rhodopsin loop 3 chimera, Rhodopsin Insert Y223 to M253 (3C) (other)
chain: QAQITGRPEWIWLALGTALMGLGTLYFLVKGMGVSDPDAKKFYAITTLVPAIAFTMYLSMLLGYGLTMVPFGGEQNPIYWARYADWLFTTPLLLLDLALLVDADQGTILALVGADGIMIGTGLVGALTKVYSYRFVWWAISTAAMLYILYVLFFGFTYGQLVFTVKEAAAQQQESATTQKAEKEVTRMVASTFKVLRNVTVVLWSAYPVVWLIGSEGAGIVPLNIETLLFMVLDVSAKVGFGLILLRSRAIFGEAEAPEPSAGDGAAATSD
Activation (x100%) Over Basal Exchange [1]: 1.44 x100%
Activation (Fold increase) over BR [2]: 2.22 fold
Activation (Fold increase) over Basal [2]: 1.6 fold
Specific counts (Lattice Form) (at 30 min), 35S-GTPyS uptake [2]: 262000 specific counts
Activation (3C) over Basal Exchange, 100 uM GDP [3]: 1.67 fold

B3: bacteriorhodopsin (other)
chain: QAQITGRPEWIWLALGTALMGLGTLYFLVKGMGVSDPDAKKFYAITTLVPAIAFTMYLSMLLGYGLTMVPFGGEQNPIYWARYADWLFTTPLLLLDLALLVDADQGTILALVGADGIMIGTGLVGALTKVYSYRFVWWAISTAAMLYILYVLFFGFTSKAESMRPEVASTFKVLRNVTVVLWSAYPVVWLIGSEGAGIVPLNIETLLFMVLDVSAKVGFGLILLRSRAIFGEAEAPEPSAGDGAAATSD
Specific counts (Lattice Form) (at 30 min), 35S-GTPyS uptake [2]: 118000 specific counts

B4: BR-Rhodopsin loop 3 chimera, Rhodopsin Insert Q225 to T251 (3D) (other)
chain: QAQITGRPEWIWLALGTALMGLGTLYFLVKGMGVSDPDAKKFYAITTLVPAIAFTMYLSMLLGYGLTMVPFGGEQNPIYWARYADWLFTTPLLLLDLALLVDADQGTILALVGADGIMIGTGLVGALTKVYSYRFVWWAISTAAMLYILYVLFFGFTQLVFTVKEAAAQQQESATTQKAEKEVTVASTFKVLRNVTVVLWSAYPVVWLIGSEGAGIVPLNIETLLFMVLDVSAKVGFGLILLRSRAIFGEAEAPEPSAGDGAAATSD
Activation (x100%) Over Basal Exchange [1]: 1 x100%
Specific counts (Lattice Form), 10 Minutes, GTPyS uptake [1]: 53400 specific counts

B5: BR-Rhodopsin loop 3 chimera, Rhodopsin Insert Y223 to R252 (3G) (other)
chain: QAQITGRPEWIWLALGTALMGLGTLYFLVKGMGVSDPDAKKFYAITTLVPAIAFTMYLSMLLGYGLTMVPFGGEQNPIYWARYADWLFTTPLLLLDLALLVDADQGTILALVGADGIMIGTGLVGALTKVYSYRFVWWAISTAAMLYILYVLFFGFTYGQLVFTVKEAAAQQQESATTQKAEKEVTRVASTFKVLRNVTVVLWSAYPVVWLIGSEGAGIVPLNIETLLFMVLDVSAKVGFGLILLRSRAIFGEAEAPEPSAGDGAAATSD
Activation (Fold increase) over BR [2]: 1.55 fold
Activation (Fold increase) over Basal [2]: 1.1 fold
Specific counts (Lattice Form) (at 30 min), 35S-GTPyS uptake [2]: 183000 specific counts

B6: BR-Rhodopsin loop 3 chimera, Rhodopsin Insert G224 to M253 (3E) (other)
chain: QAQITGRPEWIWLALGTALMGLGTLYFLVKGMGVSDPDAKKFYAITTLVPAIAFTMYLSMLLGYGLTMVPFGGEQNPIYWARYADWLFTTPLLLLDLALLVDADQGTILALVGADGIMIGTGLVGALTKVYSYRFVWWAISTAAMLYILYVLFFGFTGQLVFTVKEAAAQQQESATTQKAEKEVTRMVASTFKVLRNVTVVLWSAYPVVWLIGSEGAGIVPLNIETLLFMVLDVSAKVGFGLILLRSRAIFGEAEAPEPSAGDGAAATSD
Activation (x100%) Over Basal Exchange [1]: 1.46 x100%
Specific counts (Lattice Form), 10 Minutes, GTPyS uptake [1]: 78400 specific counts

B7: BR-Rhodopsin loop 3 chimera, Rhodopsin Insert Q225 to R252 (3H) (other)
chain: QAQITGRPEWIWLALGTALMGLGTLYFLVKGMGVSDPDAKKFYAITTLVPAIAFTMYLSMLLGYGLTMVPFGGEQNPIYWARYADWLFTTPLLLLDLALLVDADQGTILALVGADGIMIGTGLVGALTKVYSYRFVWWAISTAAMLYILYVLFFGFTQLVFTVKEAAAQQQESATTQKAEKEVTRVASTFKVLRNVTVVLWSAYPVVWLIGSEGAGIVPLNIETLLFMVLDVSAKVGFGLILLRSRAIFGEAEAPEPSAGDGAAATSD
Activation (Fold increase) over BR [2]: 1.6 fold
Activation (Fold increase) over Basal [2]: 1.17 fold
Specific counts (Lattice Form) (at 30 min), 35S-GTPyS uptake [2]: 193000 specific counts
